According to patent EP4630447A2:

Columns and labels:
Experiment in all cases: sVNT, Table 2
[1] = target: SARS-CoV-2 spike trimer, BQ.1 (SARS-CoV-2)
[2] = target: SARS-CoV-2 spike trimer, BQ.1.1 (SARS-CoV-2)
[3] = target: SARS-CoV-2 spike trimer, XBB (SARS-CoV-2)
[4] = target: SARS-CoV-2 spike trimer, XBB.1 (SARS-CoV-2)
[5] = target: SARS-CoV-2 spike trimer, XBB.1.5 (SARS-CoV-2)

Measured: IC50

Bebtelovimab (antibody)
> 1 µg/mL: all assays above
